Laboratory results taken from patent publication US7193044B1, “Compounds and methods for regulating apoptosis, and methods of making and screening for compounds that regulate apoptosis” (Immunogen, Inc., priority 2000, dated 2007).
Entries after “also recorded” stand apart in the source; their conditions may differ.

Assays:
HeLa cells [1] = test: Beta-gal ELISA apoptosis assay in transfected HeLa cells; type: cell-based, human; settings: HeLa cells, 24 hours post-transfection
Protocol: Because BAD Ser155 phosphorylation, like Ser136 phosphorylation, prevents BAD from binding to Bcl-XL (FIG. 1), it was possible that by analogy, Ser155 dephosphorylation promotes cell death. To test this idea, HeLa cells were co-transfected with BAD or various BAD serine mutants and a β-gal reporter plasmid. Twenty-four hours post-transfection, cell viability was analyzed by β-gal ELISA.
To test this idea, HeLa cells were again co-transfected with BAD or various BAD serine mutants and a β-gal reporter plasmid. Forskolin was then added to half of the cultures while the other half was left untreated. Beta-gal ELISAs were performed 24 hours post transfection. […] Thus, phosphorylation of Ser155 rescues cells from BAD-induced apoptosis, while substitution of Ser155 with a nonphosphorylatable residue results in increased cell death and the failure of cells to be protected from induced PKA activity.
Beta-gal ELISA assays were performed using the β-gal ELISA system from Boehringer Mannheim, according to manufacture's instructions. Cells were transfected with BAD (or BAD mutant) and β-gal in a ratio of 5:1. The transfected cells were trypsinized and distributed into 96-well tissue culture plates. Twenty-four hours after transfection, cell extracts were obtained by lysing the cells in lysis buffer. Cell extracts (200 μl) were then added to anti-β-gal-coated microtiter plates (MTP). The MTPs were foil-covered and incubated for one hour at 37° C. Solutions were then decanted and the MTPs were washed, followed by the addition of 200 μl of anti-β-gal-DIG working solution, and incubation for an additional hour as described above. Solutions were again decanted, the MTPs washed and 200 μl of DIG-POD working solution were added. The MTPs were incubated for another hour at 37° C., the solution decanted, and the wells washed. 200 μl of substrate with enhancer were added to each well and incubated at room temperature until color development. The β-gal activity was measured by the absorbance of the sample at […]. Data were based on triplicate wells with standard deviations calculated.

HeLa cells [2] = test: Fluorescence-based beta-galactosidase assay of BAD-induced cell death in transfected HeLa cells; set-up: species or system human; settings: SFM vs SFM+EGF, 12 hours
Protocol: FIG. 12(B) is a graphic representation of the results of a β-galactosidase assay. HeLa cells were co-transfected with the β-galactosidase gene and either HA-BAD (“WT”), HA-BAD S155A (“S155A”), HA-BAD S112A/S136A (“S112A/S136A”) or HA-BAD S112A/S136A/S155A (“AAA”). Transfected cells were then cultured in serum-free medium (SFM) or SFM supplemented with EGF (SFM+EGF) for 12 hours. Cell lysates were prepared and BAD-induced cell death was measured by the loss of β-galactosidase activity in a fluorescence-based assay. Fluorescence was measured at 465 nm. Results shown are the average and standard deviation of triplicate transfections (this experiment was repeated two more times with similar results). Expression levels of HA-tagged BAD and BAD mutants in transfected cell lysates were detected by anti-HA western blot analysis: HA-BAD (“WT”), HA-BAD S155A (“A”), HA-BAD S112A/S136A (“AA”), and HA-BAD S112A/S136A/S155A (“AAA”).
FIG. 12(C) is a graphic representation of the results of a β-galactosidase assay. HeLa cells were co-transfected with the β-galactosidase gene and either an empty vector (“CTL”), wild-type BAD (“WT”), the BAD S155A mutant (“S155A”) or the BAD S155D mutant (“S155D”). Cell lysates were prepared and BAD-induced cell death was measured by the loss of β-galactosidase activity in a fluorescence-based assay. Fluorescence was measured at 465 nm. Results shown are the average and standard deviation of triplicate transfections (this experiment was repeated two more times with similar results).
HeLa cells were co-transfected with the β-galactosidase gene and either wild-type BAD, BAD S155A, BAD S112A/S136A or BAD S112A/S136A/S155A. […] Cell lysates were prepared and BAD-induced cell death was measured by the loss of β-galactosidase activity in a fluorescence-based assay. […]
To measure β-gal activity, HeLa cells were plated in 12-well plates at 5×10^4 cells/well one day prior to transfection. […] Beta-gal activity was measured in extracts using a fluorogenic substrate (MUG, BIO-RAD FluorAce™ β-gal Reporter Assay, #170–3150). […]

B1: BAD S155A: mutant of shorter murine BAD, serine corresponding to Ser155 substituted with alanine; HA- or GST-tagged (protein)
chain: MFQIPEFEPSEQEDASATDRGLGPSLTEDQPGPYLAPGLLGSNIHQQGRAATNSHHGGAGAMETRSRHSSYPAGTEEDEGMEEELSPFRGRSRSAPPNLWAAQRYGRELRRMADEFEGSFKGLPRPKSAGTATQMRQSAGWTRIIQSWWDRNLGKGGSTPSQ
modifications: left off: small tags and cut ends
notes: mutant of shorter murine BAD, serine corresponding to Ser155 substituted with alanine; HA- or GST-tagged
- effect of expressed BAD mutant on cellular survival / cell death (HeLa cells [1]): greatest effect on cellular survival, with a significant increase in cell death compared to the control; also recorded: enhanced apoptotic activity compared with the wild-type mammalian BAD
- effect of EGF stimulation on pro-apoptotic activity of the BAD mutant (HeLa cells [2]): does not eliminate the protective effect of EGF
